# B1: p60: S. purpuratus katanin 60 kDa subunit, 516 a.a. AAA ATPase (SEQ ID NO: 1), baculovirus-expressed with N-terminal His(6) tag (protein, listed as Strongylocentrotus purpuratus)
# chain: MSVDEICENTKMGREYALLGNYETSLVYYQGVLQQIQKLLTSVHEPQRKHQWQTIRQELSQEYEHVKNITKTLNGFKSEPAAPEPAPNHGRAAPFSHHQHAAKPAAAEPARDPDVWPPPTPVDHRPSPPYQRAARKDPPRRSEPSKPANRAPGNDRGGRGPSDRRGDARSGGGGRGGARGSDKDKNRGGKSDKDKKAPSGEEGDEKKFDPAGYDKDLVENLERDIVQRNPNVHWADIAGLTEAKRLLEEAVVLPLWMPDYFKGIRRPWKGVLMVGPPGTGKTMLAKAVATECGTTFFNVSSASLTSKYHGESEKLVRLLFEMARFYAPSTIFIDEIDSICSKRGTGSEHEASRRVKSELLIQMDGVSGPSAGEESSKMVMVLAATNFPWDIDEALRRRLEKRIYIPLPEIDGREQLLRINLKEVPLADDIDLKSIAEKMDGYSGADITNVCRDASMMAMRRRIQGLRPEEIRHIPKEELNQPSTPADFLLALQKVSKSVGKEDLVKYMAWMEEFGSV
# modifications: N-terminal His6 tag; katanin p60 subunit
# B2: p97: AAA ATPase cited for comparison (Peters et al. 1992) (protein, UniProt P23787 1-805, looked up)
# Transitional endoplasmic …: MASGSDTKSDDLSTAILKQKSRPNRLIVDESINEDNSMVSLSQAKMDELQLFRGDTVLLKGKKRREAVCIVLSDDTCSDEKIRMNRVVRNNLRVRLGDVISIQPCPDVKYGKRVHVLPIDDTVEGITGNLFEVYLKPYFLEAYRPIRKGDIFLVRGGMRAVEFKVVETDPSPYCIVAPDTVIHCEGEPIKREDEEESLNEVGYDDIGGCRKQLAQIKEMVELPLRHPALFKAIGVKPPRGILLYGPPGTGKTLIARAVANETGAFFFLINGPEIMSKLAGESESNLRKAFEEAEKNAPAIIFIDELDAIAPKREKTHGEVERRIVSQLLTLMDGLKQRAHVIVMAATNRPNSIDPALRRFGRFDREVDIGIPDSTGRLEILQIHTKNMKLSDDVDLEQVANETHGHVGADLAALCSEAALQAIRKKMDLIDLEDETIDAEVMNSLAVTMDDFRWALSQSNPSALRETVVEVPQVTWEDIGGLEDVKRELQELVQYPVEHPDKFLKFGMTPSKGVLFYGPPGCGKTLLAKAIANECQANFISIKGPELLTMWFGESEANVREIFDKARQAAPCVLFFDELDSIAKARGGNIGDGGGAADRVINQILTEMDGMSIKKNVFIIGATNRPDIIDPAILRPGRLDQLIYIPLPDEKSRMAILKANLRKSPVAKDVDVDFLAKMTNGFSGADLTEICQRACKLAIRESIENEIRRERDRQTNPSAMEVEEDDPVPEIRRDHFEEAMRFARRSVSDNDIRKYEMFAQTLQQSRGFGSFRFPAGGQSGAGPSPGAGGGSGGGHFTEEDDDLYG
# B3: p80: S. purpuratus katanin 80 kDa subunit, 690 a.a. polypeptide with six WD40 repeats (SEQ ID NO: 2) (protein, listed as Strongylocentrotus purpuratus)
# chain: MATKRAWKLQELVAHSSNVNCLALGPMSGRVMVTGGEDKKVNLWAVGKQNCIISLSGHTSPVDSVKFNSSEELVVAGSQSGTMKIYDLEPAKIVRTLTGHRNSIRCMDFHPFGEFVASGSTDTNVKLWDVRRKGCIYTYKGHSDQVNMIKFSPDGKWLVTASEDTTIKLWDLTMGKLFQEFKNHTGGVTGIEFHPNEFLLASGSSDRTVQFWDLETFQLVSSTSPGASAVRSISFHPDGSYLFCSSQDMLHAFGWEPIRCFDTFSVFWGKVADTVIASTQLIGASFNATNVSVYVADLSRMSTTGIAQEPQSQPSKTPSGGAEEVPSKPLTASGRKNFVRERPHTTSSKQRQPDVKSEPERQSPTQDEGVKDDDATDIKDPDSYAKIFSPKTRVDHSPERNAQPFPAPLDVPGAQEPEPFKHPPKPAAAAAVAPVSRAPAPSASDWQPAQANPAPNRVPAATKPVPAQEVAPSRKPDPISTIIPSDRNKPANLDMDAFLPPAHAQQAPRVNAPASRKQSDSERIEGLRKGHDSMCQVLSSRHRNLDVVRAIWTAGDAKTSVESVVNMKDQAILVDILNIMLLKKSLWNLDMCVVVLPRLKELLSSKYENYVHTSCACLKLILKNFTSLFNQNIKCPPSGIDITREERYNKCSKCYSYLIATRGYVEEKQHVSGKLGSSFRELHLLLDQLE
# modifications: katanin p80 subunit
# What was measured:
# [1] = ATPase assay (modified malachite green method); format: biochemical
# Protocol: (§1) ATPase activity was measured by a modified malachite green method (Kodama et al. (1986) J. Biochem. 99: 1465-1472). ATPase reactions of 50-100 μL were carried out in a buffer previously used for measuring the ATPase activity of native katanin [20 mM K-HEPES pH 8.0, 25 mM K-Glutamate, 2 mM MgCl2, 10% glycerol (v/v), 0.02% Triton X-100 (w/v), 1 mg/ml BSA] (McNally and Vale (1993) Cell, 75: 419-429), except that soybean trypsin inhibitor (SBTI) was replaced by BSA as a carrier protein because SBTI increased background phosphate contamination. An ATP regenerating system consisting of 0.5-1.0 mM phospho-enol pyruvate and 2U pyruvate kinase was included to minimize the inhibition by ADP observed previously for native katanin (McNally and Vale (1993) Cell, 75; 419-429). Microtubules were prepared from bovine brain tubulin (Hyman el al. (1 990) Meth. Enzymol. 196: 303-319; Williams and Lee (1982) Meth Enzymol. 85B: 376-385). After assembly, microtubules were sedimented (230,000×g; 10 min), resuspended in ATPase buffer lacking BSA, and the polymers were resuspended by repeated passage through a 27 gauge needle. Microtubule concentration was determined by measuring the absorbance at 275 nm in 6M guanidine HCl by using a molecular mass of 110 kDa and an extinction coefficient of 1.03 ml*mg^−1*cm^−1 (Hackney (1988) Proc. Natl. Acad. Sci. USA, 85: 6314-6318). […]
# [2] = test system: Taxol-stabilized, rhodamine-labeled microtubules; experiment: Microscope-based microtubule severing assay; format: biochemical
# Protocol: Microscope-based severing assays were performed using previously published procedures (McNally and Vale (1993) Cell, 75: 419-429), except that microtubules were immobilized by first perfusing flow cells with a bacterially expressed kinesin mutant that binds strongly to microtubules but is unable to hydrolyze ATP (K560, G234A mutant; R. Vale and E. Taylor, unpublished results). Assays were performed in 20 mM Hepes (pH 7.5), 2 mM MgCl2, 1 mM ATP with an oxygen scavenger system consisting of glucose oxidase (220 μg/ml), catalase (36 μg/ml), glucose (22.5 mM), and 2-mercaptoethanol (71.5 mM). Images were captured using a cooled, slow-scan CCD (Photometerics) and processed using Adobe Photoshop.
# [3] = literature values; cited from earlier work
# [4] = test system: microtubules; experiment: DAPI fluorescence microtubule disassembly (severing) assay; format: biochemical, bovine; settings: 2 μM microtubules, FIG. 5C
# Protocol: as §1, with “Microtubules were prepared from bovine brain tubulin (Hyman el al. (1 990) Meth. Enzymol. 196: 303-319; Williams and Lee (1982) Meth Enzymol. 85B: 376-385). After assembly, microtubules were sedimented (230,000×g; 10 min), resuspended in ATPase buffer lacking BSA, and the polymers were resuspended by repeated passage through a 27 gauge needle.” left out
# DAPI severing assays were performed using conditions where the change in fluorescence intensity was linear with the amount of tubulin polymer added (Heusele et al. (1987) Eur. J. Biochem. 165: 613-620). […] The reaction volume was 80 μL, and. fluorescence intensity was measured by exciting at 370 nm and measuring the emission at 450 nm using a model 8100 fluorimeter. […]
molecule,measurement,setting,value
B1,microtubule concentration at peak stimulation of ATP turnover,[1],~2 μM tubulin
same,time until microtubules were completely disassembled,[2]; 0.1 μM protein,5 min
B2,ATPase activity of other AAA proteins,[3],1 ATP/sec
B3,ATPase activity,[1]; baculovirus-expressed subunit alone,no detectable ATPase activity
same,microtubule severing,[2]; concentrations 5-fold higher than those used for p60 (0.5 μM),unable to sever microtubules
same,change in DAPI fluorescence,[4],did not cause a change in fluorescence

# From patent publication US6699969B1, “Assays for the detection of microtubule depolymerization inhibitors” (The Regents of the University of California, priority 1998, dated 2004)
